From patent US20110243899A1 (NATIONAL UNIVERSITY CORPORATION CHIBA UNIVERSITY, published 2011) come the findings set out here.

Assay [1] has as its target Myc-tagged Frz8CRD (Frz8CRD-Myc), cysteine-rich domain of Frizzled 8 (Mus musculus (Mouse)) (UniProt Q61091). As to the kind of experiment: liquid-phase binding assay with immunoprecipitated Frz8CRD-Myc, Scatchard plot.
For assay [2], the target named is T1, Myc-tagged LRP6N (LRP6N-Myc), extracellular portion of LRP6 (UniProt O75581 20-1370, limits assumed).
T1 construct: extracellular domain; Produced in conditioned medium of 293 cells; not shown: Myc tag
T1 sequence (looked up): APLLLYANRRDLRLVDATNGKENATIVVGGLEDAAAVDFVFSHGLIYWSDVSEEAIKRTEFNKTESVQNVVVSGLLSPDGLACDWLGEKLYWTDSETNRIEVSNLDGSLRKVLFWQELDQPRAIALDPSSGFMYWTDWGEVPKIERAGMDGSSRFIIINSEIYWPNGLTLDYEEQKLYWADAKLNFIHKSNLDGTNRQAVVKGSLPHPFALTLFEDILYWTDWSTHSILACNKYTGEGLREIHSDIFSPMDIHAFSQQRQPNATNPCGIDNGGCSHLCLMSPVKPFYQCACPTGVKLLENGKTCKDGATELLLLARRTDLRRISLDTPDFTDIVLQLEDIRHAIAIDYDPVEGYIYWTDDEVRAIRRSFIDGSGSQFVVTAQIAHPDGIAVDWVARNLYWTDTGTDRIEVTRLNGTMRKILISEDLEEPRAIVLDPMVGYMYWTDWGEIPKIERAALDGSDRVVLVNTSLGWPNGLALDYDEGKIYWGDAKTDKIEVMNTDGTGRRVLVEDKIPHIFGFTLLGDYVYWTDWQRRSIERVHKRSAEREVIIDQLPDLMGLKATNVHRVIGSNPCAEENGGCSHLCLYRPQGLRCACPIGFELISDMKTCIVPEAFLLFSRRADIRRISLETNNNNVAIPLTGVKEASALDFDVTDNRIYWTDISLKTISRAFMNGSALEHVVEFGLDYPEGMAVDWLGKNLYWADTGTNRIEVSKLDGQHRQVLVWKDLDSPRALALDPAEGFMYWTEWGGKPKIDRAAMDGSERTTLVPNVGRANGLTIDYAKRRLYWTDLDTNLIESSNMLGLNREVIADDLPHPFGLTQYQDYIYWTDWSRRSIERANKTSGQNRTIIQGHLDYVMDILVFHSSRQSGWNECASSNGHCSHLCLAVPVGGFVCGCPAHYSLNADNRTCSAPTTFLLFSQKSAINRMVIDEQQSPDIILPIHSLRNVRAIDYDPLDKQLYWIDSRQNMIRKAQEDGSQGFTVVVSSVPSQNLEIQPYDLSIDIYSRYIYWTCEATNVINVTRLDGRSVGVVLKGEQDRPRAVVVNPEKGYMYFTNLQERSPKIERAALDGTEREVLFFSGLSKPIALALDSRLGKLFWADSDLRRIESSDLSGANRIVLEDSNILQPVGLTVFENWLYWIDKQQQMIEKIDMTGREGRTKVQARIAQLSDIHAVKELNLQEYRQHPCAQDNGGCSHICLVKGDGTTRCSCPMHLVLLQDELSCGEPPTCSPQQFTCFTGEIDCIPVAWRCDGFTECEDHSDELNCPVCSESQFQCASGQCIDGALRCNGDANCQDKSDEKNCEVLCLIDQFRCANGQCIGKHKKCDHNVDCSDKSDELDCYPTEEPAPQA
Nature of the assay: IP with anti-Myc antibody, immunoblot with anti-V5 antibody. The protocol: The interaction was assessed by allowing LRP6N-Myc to react with each V5-tagged IGFBP, and performing immunoprecipitation (IP) with an anti-Myc antibody and subsequent immunoblotting (IB) with an anti-V5 antibody (upper panel), and immunoprecipitation (IP) with an anti-V5 antibody and subsequent immunoblotting (IB) with an anti-V5 antibody (lower panel). In the figure, IGFBP-1, IGFBP-2, IGFBP-3, IGFBP-4, IGFBP-5, and IGFBP-6 are represented by BP1, BP2, BP3, BP4, BP5, and BP6, respectively.
For orientation: A western blot detects proteins with antibodies after separation by electrophoresis.

Assay [3] concerns the target T2, Myc-tagged Frz8CRD (Frz8CRD-Myc), cysteine-rich domain of Frizzled 8 (UniProt Q61091 28-151).
T2 chain: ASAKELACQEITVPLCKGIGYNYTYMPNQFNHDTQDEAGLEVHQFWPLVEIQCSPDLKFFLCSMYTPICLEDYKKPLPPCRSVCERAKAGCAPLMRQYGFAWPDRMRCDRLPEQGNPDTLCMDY
Nature of the assay: radioligand saturation binding (Scatchard).

For assay [4], the target named is T3, Myc-tagged LRP6N (LRP6N-Myc), extracellular portion of LRP6 (UniProt O75581 20-1370).
T3 chain: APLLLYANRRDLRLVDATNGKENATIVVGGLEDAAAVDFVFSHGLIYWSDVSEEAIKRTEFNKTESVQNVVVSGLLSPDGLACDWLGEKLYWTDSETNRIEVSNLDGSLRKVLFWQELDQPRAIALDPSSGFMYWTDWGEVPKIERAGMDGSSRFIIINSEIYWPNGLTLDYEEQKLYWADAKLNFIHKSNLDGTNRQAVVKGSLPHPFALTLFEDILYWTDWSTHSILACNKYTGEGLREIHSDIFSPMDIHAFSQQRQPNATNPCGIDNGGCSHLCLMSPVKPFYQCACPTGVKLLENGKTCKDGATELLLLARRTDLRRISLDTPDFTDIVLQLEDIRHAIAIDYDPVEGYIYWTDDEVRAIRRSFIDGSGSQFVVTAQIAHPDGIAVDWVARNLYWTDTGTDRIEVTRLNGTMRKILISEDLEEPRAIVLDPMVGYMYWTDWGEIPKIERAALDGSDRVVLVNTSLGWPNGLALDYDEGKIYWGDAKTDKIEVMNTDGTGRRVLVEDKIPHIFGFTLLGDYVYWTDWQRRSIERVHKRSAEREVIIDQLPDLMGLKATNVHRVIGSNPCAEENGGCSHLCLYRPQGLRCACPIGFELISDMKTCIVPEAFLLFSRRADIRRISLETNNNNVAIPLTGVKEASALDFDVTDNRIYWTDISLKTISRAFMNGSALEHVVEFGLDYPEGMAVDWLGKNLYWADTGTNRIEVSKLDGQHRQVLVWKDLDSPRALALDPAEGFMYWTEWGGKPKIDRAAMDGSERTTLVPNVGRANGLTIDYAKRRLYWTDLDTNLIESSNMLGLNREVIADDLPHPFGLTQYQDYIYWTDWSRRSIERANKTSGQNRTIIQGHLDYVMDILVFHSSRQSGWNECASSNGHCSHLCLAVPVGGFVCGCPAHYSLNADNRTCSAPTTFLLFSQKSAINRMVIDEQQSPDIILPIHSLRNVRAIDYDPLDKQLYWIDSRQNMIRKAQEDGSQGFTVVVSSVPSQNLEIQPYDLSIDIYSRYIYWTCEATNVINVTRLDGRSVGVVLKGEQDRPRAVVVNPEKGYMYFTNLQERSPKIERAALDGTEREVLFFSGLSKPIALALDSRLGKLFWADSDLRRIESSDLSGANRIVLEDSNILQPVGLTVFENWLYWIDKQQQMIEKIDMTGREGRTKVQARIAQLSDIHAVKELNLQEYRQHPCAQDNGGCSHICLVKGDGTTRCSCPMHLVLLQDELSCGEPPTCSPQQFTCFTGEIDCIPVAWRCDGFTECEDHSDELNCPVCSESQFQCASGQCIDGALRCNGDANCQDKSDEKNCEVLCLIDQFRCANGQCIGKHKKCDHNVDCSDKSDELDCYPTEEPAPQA
As to the kind of experiment: radioligand saturation binding (Scatchard); Kd2, low-affinity site.

Assay [5] concerns the target T3, Myc-tagged LRP6N (LRP6N-Myc), …. Nature of the assay: radioligand saturation binding (Scatchard); Kd1, high-affinity site.

For ^125I-labelled IGFBP-4, in assay [1], the Kd (usually the equilibrium constant for the complex coming apart) was 25 nM.

B1: IGFBP-5 (V5-tagged) (other, mouse, UniProt Q07079 20-271, looked up)
chain: LGSFVHCEPCDEKALSMCPPSPLGCELVKEPGCGCCMTCALAEGQSCGVYTERCAQGLRCLPRQDEEKPLHALLHGRGVCLNEKSYGEQTKIERDSREHEEPTTSEMAEETYSPKVFRPKHTRISELKAEAVKKDRRKKLTQSKFVGGAENTAHPRVIPAPEMRQESEQGPCRRHMEASLQEFKASPRMVPRAVYLPNCDRKGFYKRKQCKPSRGRKRGICWCVDKYGMKLPGMEYVDGDFQCHAFDSSNVE
notes: V5-tagged in the IP/western; not shown: V5 tag
With B1, in assay [2], the binding result was “no binding”.

B2: IGFBP-3 (V5-tagged) (other, mouse, UniProt P47878 28-292, looked up)
chain: GAGAVGAGPVVRCEPCDARALSQCAPPPTAPACTELVREPGCGCCLTCALREGDACGVYTERCGTGLRCQPRPAEQYPLRALLNGRGFCANASAAGSLSTYLPSQPAPGNISESEEEHNAGSVESQVVPSTHRVTDSKFHPLHAKMDVIKKGHARDSQRYKVDYESQSTDTQNFSSESKRETEYGPCRREMEDTLNHLKFLNVLSPRGVHIPNCDKKGFYKKKQCRPSKGRKRGFCWCVDKYGQPLPGYDTKGKDDVHCLSVQSQ
notes: as for B1
Turning to B2, the binding result in assay [2] was “no binding”.

B3: ^125I-labelled IGFBP-4 (other)
chain: DEAIHCPPCSEEKLARCRPPVGCEELVREPGCGCCATCALGLGMPCGVYTPRCGSGLRCYPPRGVEKPLHTLMHGQGVCMELAEIEAIQESLQPSDKDEGDHPNNSFSPCSAHDRRCLQKHFAKIRDRSTSGGKMKVNGAPREDARPVPQGSCQSELHRALERLAASQSRTHEDLYIIPIPNCDRNGNFHPKQCHPALDGQRGKCWCVDRKTGVKLPGGLEPKGELDCHQLADSFRE
Take B3: the Kd in assay [3] stood at 2.5 nM; in assay [4], 6.9 nM; in assay [5], 0.17 nM.
